Laboratory results published in US12312398B2, “Compositions and methods for targeting activin signaling to treat cancer” (The Johns Hopkins University, priority 2016, dated 2025).

Columns and labels:
[1] = tested on: SMAD; assay: SMAD phosphorylation by western blot in CD4+ T cells; format: cell-based, mice; conditions: CD4+CD25− T cells, anti-CD3/anti-CD28 24 hrs, then 12 hours treatment; Activin 5 or 10 ng/ml; TGF-β 0.5 or 2 ng/ml; versus untreated
Method: Cells were harvested and subjected to SDS-PAGE and Western blot with the indicated antibodies.
Since Activin has been reported to promote SMAD signaling in non-T cells (Schmierer, B., et al., J Biol Chem, 2003. 278:21197-203), whether Activin signaling in T cells could have a similar effect was examined SMAD activity was assessed by western blot analysis of SMAD phosphorylation.

[2] = tested on: naïve CD4+ T cells; assay: In vitro Treg differentiation, intracellular Foxp3 by flow cytometry; format: cell-based, mice
Method: Naïve CD4+ T cells from Yap1f/f,Foxp3-yfpCre+ (KO) and Yap1 wt/wt,Foxp3ypfCre+ (WT) mice were stimulated with anti-CD3/CD28 antibodies (1 and 4 ug/ml, respectively) for 3 days in the presence of IL-2 (100 U/ml) and the indicated doses of TGFβ and exogenous Activin A. A low dose of TGF-beta and/or activin was also administered to the indicated samples (activin was dosed at 50 ng/ml on day 0 and day 2 of culture). Treg induction (via detection of intracellular Foxp3 up-regulation) was determined by flow cytometry.
To explore the involvement of Activin/ACVR1C signaling in the driving of Treg differentiation by YAP, the effects of supplemental Activin on in vitro Treg commitment was also investigated. Activation of wild type naïve CD4+ T cells without TGFI3 yielded little-to-no Foxp3 induction.
Naïve CD4+ T cells (CD4+ CD25− CD62LHi) were sorted on a FACS Aria high speed sorter. The sorted cells were activated with plate-bound aCD3 (10 ug/ml) and soluble aCD28 (2ug/ml) in a 24-well plate with the following polarizing conditions: Th1 (IL-12 (10 ng/ml), aIL-4 (10 ug/ml)), Th2 (IL-4 (10 ng/ml), aIFN-g(10 ug/ml), aIL-12 (10 ug/ml)), Th17 (IL-6 (10 ng/ml), TGF-b1 (1.25 ng/ml), IL-23 (10 ng/ml), IL-1b(10 ng/ml), aIFN-g (10 ug/ml), aIL-4 (10 ug/ml), Treg (TGFb1 (5 ng/ml), IL-2 (100IU/ml).
For extracellular staining, harvested cells were washed and incubated in PBS containing 1% FBS containing the below fluorochrome-conjugated antibodies in a U-bottom 96-well plate. For intracellular cytokine staining, harvested cells were re-stimulated in PMA and Ionomycin in the presence of Golg-Plug (BD Biosciences). After 5 hour incubation, the cells were fixed/permeablized (eBioscience) and incubated with antibodies. IFN-g PE, IFN-g APC, IL-13 PE, IL-17 APC (BD Bioscience), IL-2 APC (BD Pharmingen), Foxp3 PE (eBioscience). For cellular proliferation, Cell Trace CFSE cell proliferation kit (Invitrogen) was used per manufacture's manual.

Row | Molecule | SMAD phosphorylation (phospho-SMAD) [1] | Foxp3+ T cell induction (Treg induction) ([2]; wild type naïve CD4+ T cells, anti-CD3/CD28, IL-2 (100 U/ml), 3 days, activin 50 ng/ml on day 0 and day 2, low (suboptimal) dose TGF-β) | Foxp3+ T cell induction (Treg induction) ([2]; Foxp3-driven YAP knockout (Foxp3Cre+/Yap1f/f) naïve CD4+ T cells, anti-CD3/CD28, IL-2, 3 days) | Foxp3+ T cell induction (Treg induction) ([2]; wild type naïve CD4+ T cells, anti-CD3/CD28, IL-2 (100 U/ml), 3 days, activin 50 ng/ml on day 0 and day 2, low (suboptimal) dose TGF-β, listed as Activin A)
1 | TGF-β: anti-inflammatory cytokine TGF-β, inducer of Foxp3 expression | induced SMAD phosphorylation | modest up-regulation of Foxp3 |  | 
2 | Activin: Activin (or Activin A), a dimeric member of the TGF-β Superfamily, added exogenously to T cells (protein, UniProt P08476 311-426, looked up, Inhibin beta A chain homodimer) Inhibin beta A chain: GLECDGKVNICCKKQFFVSFKDIGWNDWIIAPSGYHANYCEGECPSHIAGTSGSSLSFHSTVINHYRMRGHSPFANLKSCCVPTKLRPMSMLYYDDGQNIIKKDIQNMIVEECGCS | elevation of phospho-SMAD |  | not seen | generated a population of Foxp3+ cells
